Residue numbers refer to the chain shown, from its start.
B1: 22-16 (ligand)
chain: AHYNTEILKSIDNEWRKTQCMPREVCIDVGKEFGVATNTFFKPPCVSVYRCGGCCNSEGLQCMNTSTSYLSKTLFEITVPLSQGPKPVTISFANHTSCRCMSKLD
B2: 12-13 (ligand)
chain: GQNHHEVVKFMDVYQRSYCHPIETLVDIFQEFGVATNTFFKPPCVSVYRCGGCCNDEGLECVPTEESNITMQIMRITVPLSQGPKPVTISFANHTSCRCMSKLN
B3: 12-15 (ligand)
chain: B2 chain with D56S, E60Q, N104D
B4: 53-3 (ligand)
chain: AHYNTEILKSIDNEWRKTQCMPIETLVDIFQEYPDEIEYIFKPPCVSVYRCGGCCNSEGLQCVPTEESNITMQIMRIKPHQGQHIGEMSFLQHNKCECRPKKD
B5: 12-14 (ligand)
chain: GQNHHEVVKFMDVYQRSYCHPIETLVDIFQEFGVATNTFFKPPCVSVYRCGGCCNDEGLECMNTSTSYLSKTLFEITVPLSQGPKPVTISFANHTSCRCMSKLD
B6: 61-14 (ligand)
chain: GQNHHEVVKFMDVYQRSYCHPREVCIDVGKEYPDEIEYIFKPSCVPLMRCGGCCNDEGLECMNTSTSYLSKTLFEITVPLSQGPKPVTISFANHTSCRCMSKLD
B7: 12-3 (ligand)
chain: GQNHHEVVKFMDVYQRSYCHPIETLVDIFQEFGVATNTFFKPPCVSVYRCGGCCNSEGLQCVPTEESNITMQIMRIKPHQGQHIGEMSFLQHNKCECRPKKD
B8: 12-5 (ligand)
chain: B7 chain with S56D, Q60E, L90A, Q91N, N93T, K94S, E96R, R98M, P99S, K101L
B9: 83-15 (ligand)
chain: AHYNTEILKFMDVYQRSYCHPIETLVDIFQEYPDEIEYIFKPPCVSVYRCGGCCNSEGLQCVPTEESNITMQIMRITVPLSQGPKPVTISFANHTSCRCMSKLD
B10: 82-13 (ligand)
chain: B2 chain with G1A, Q2H, N3Y, H4N, H5T, V7I, V8L, N104D
B11: 11-1 (ligand)
chain: GQNHHEVVKFMDVYQRSYCHPIETLVDIFQEYPDEIEYIFKPSCVPLMRCGGCCNDEGLECVPTEESNITMQIMRIKPHQGQHIGEMSFLQHNKCECRPKKD
B12: 12-1 (ligand)
chain: B7 chain with S56D, Q60E
B13: 14-9 (ligand)
chain: GQNHHEVVKFMDVYQRSYCHPIETLVDIFQEFGVATNTFFKPSCVPLMRCGGCCNDEGLECVPTEESNITMQIMRITVPLSQGPKPVTISFLQHNKCECRPKKD
B14: 82-7 (ligand)
chain: AHYNTEILKFMDVYQRSYCHPIETLVDIFQEFGVATNTFFKPPCVSVYRCGGCCNSEGLQCVPTEESNITMQIMRIKPHQGQHIGEMSFANHTSCRCMSKLD
B15: 12-7 (ligand)
chain: B14 chain with A1G, H2Q, Y3N, N4H, T5H, I7V, L8V
B16: 72-7 (ligand)
chain: GQNHHEVVKSIDNEWRKTQCMPREVCIDVGKEFGVATNTFFKPPCVSVYRCGGCCNSEGLQCVPTEESNITMQIMRIKPHQGQHIGEMSFANHTSCRCMSKLD
B17: 22-1 (ligand)
chain: AHYNTEILKSIDNEWRKTQCMPREVCIDVGKEFGVATNTFFKPPCVSVYRCGGCCNDEGLECVPTEESNITMQIMRIKPHQGQHIGEMSFLQHNKCECRPKKD
B18: 82-9 (ligand)
chain: AHYNTEILKFMDVYQRSYCHPIETLVDIFQEFGVATNTFFKPPCVSVYRCGGCCNDEGLECVPTEESNITMQIMRITVPLSQGPKPVTISFLQHNKCECRPKKD
B19: 12-9 (ligand)
chain: B13 chain with S43P, P46S, L47V, M48Y
B20: 82-11 (ligand)
chain: B18 chain with D56S, E60Q
B21: 12-11 (ligand)
chain: B13 chain with S43P, P46S, L47V, M48Y, D56S, E60Q
B22: 84-9 (ligand)
chain: B18 chain with P43S, S46P, V47L, Y48M
B23: 84-11 (ligand)
chain: B18 chain with P43S, S46P, V47L, Y48M, D56S, E60Q

Each binder was assayed against T1, VEGFR-2-Fc (human, UniProt P35968 20-322) (assay: receptor-Fc IP).
T1 construct: domain: first 3 Ig domains; used as conditioned supernatant of 293T cells; also called VEGFR-2-Fc fusion protein; not shown: Fc fragment of the pIg vector
Description: (§1) The binding assay procedure was identical to the immunoprecipitation using pentahistidine antibody described in Example 2, apart from the composition of the immunoprecipitation (IP) mixes. The IP mixes used for the receptor binding analysis were as follows: For VEGFR-1 binding assays, the IP mix was phosphate buffered saline (PBS) containing 1.5% BSA, 0.06% Tween 20, 3 μg/ml heparin and 400 ng/ml VEGFR-1-Fc fusion protein (100 μl of this IP mix was added to 200 μl of sample supernatant); for VEGFR-2 binding assays, the IP mix was 82% conditioned cell supernatant from 293T cells transiently expressing VEGFR-2-Fc fusion protein in mixture with 18% of a PBS solution that contained 5% BSA, 0.2% Tween 20, and 10 μg/ml heparin (250 μl of IP mix was added to 200 μl of sample supernatant); and for VEGFR-3 binding assays, the IP mix was 82% conditioned cell supernatant from 293T cells transiently expressing VEGFR-3-Fc fusion protein, 18% of PBS containing 5% BSA, 0.2% Tween 20, and 10 μg/ml heparin (250 μl of IP mix was added to 200 μl of sample supernatant).

T1 sequence (P35968 20-322): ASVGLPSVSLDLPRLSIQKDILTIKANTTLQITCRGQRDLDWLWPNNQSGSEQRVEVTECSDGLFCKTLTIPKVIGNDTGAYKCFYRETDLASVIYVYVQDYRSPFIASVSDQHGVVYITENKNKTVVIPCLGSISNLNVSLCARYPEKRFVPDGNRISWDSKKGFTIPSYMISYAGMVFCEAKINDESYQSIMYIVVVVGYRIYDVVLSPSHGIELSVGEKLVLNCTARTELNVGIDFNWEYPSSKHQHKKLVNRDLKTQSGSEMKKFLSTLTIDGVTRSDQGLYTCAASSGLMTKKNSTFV

Binder | binding result
B1 | binds
B2 | no binding
B3 | binds
B4 | binds
B5 | no binding
B6 | no binding
B7 | binds
B8 | no binding
B9 | binds
B10 | no binding
B11 | binds
B12 | binds
B13 | binds
B14 | binds
B15 | binds
B16 | no binding
B17 | no binding
B18 | binds
B19 | no binding
B20 | binds
B21 | binds
B22 | binds
B23 | binds

These binders were tested against T2, VEGFR-3-Fc (human, UniProt P35916 25-328) (assay: receptor-Fc IP).
T2 construct: domain: first three Ig domains; used as conditioned supernatant of 293T cells; also called VEGFR-3-Fc fusion protein; not shown: Fc fragment of the pIg vector
T2 sequence (looked up): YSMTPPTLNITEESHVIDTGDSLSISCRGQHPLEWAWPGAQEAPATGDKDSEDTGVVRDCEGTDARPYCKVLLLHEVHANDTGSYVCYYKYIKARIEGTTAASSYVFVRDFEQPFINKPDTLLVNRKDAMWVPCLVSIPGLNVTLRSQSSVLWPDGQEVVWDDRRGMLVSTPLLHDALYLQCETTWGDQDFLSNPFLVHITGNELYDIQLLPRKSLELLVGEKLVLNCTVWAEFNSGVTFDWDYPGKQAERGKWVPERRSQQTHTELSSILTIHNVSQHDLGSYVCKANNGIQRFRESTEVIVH
Description: as §1

Binder | binding result
B1 | binds
B2 | binds
B3 | binds
B4 | binds
B5 | binds
B6 | no binding
B7 | no binding
B8 | no binding
B9 | no binding
B10 | binds
B11 | no binding
B12 | binds
B13 | binds
B14 | binds
B15 | binds
B16 | no binding
B17 | no binding
B18 | binds
B19 | binds
B20 | binds
B21 | binds
B22 | binds
B23 | binds

Each binder was assayed against T3, VEGFR-1-Fc (human, UniProt P17948 27-331) (assay: receptor-Fc IP).
T3 construct: domain: first three Ig domains; expressed in Drosophila S2 cells, purified on Protein A sepharose; also called VEGFR-1-Fc fusion protein; not shown: Fc fragment from the Signal-pIgPlus vector
Description: as §1

T3 sequence (P17948 27-331): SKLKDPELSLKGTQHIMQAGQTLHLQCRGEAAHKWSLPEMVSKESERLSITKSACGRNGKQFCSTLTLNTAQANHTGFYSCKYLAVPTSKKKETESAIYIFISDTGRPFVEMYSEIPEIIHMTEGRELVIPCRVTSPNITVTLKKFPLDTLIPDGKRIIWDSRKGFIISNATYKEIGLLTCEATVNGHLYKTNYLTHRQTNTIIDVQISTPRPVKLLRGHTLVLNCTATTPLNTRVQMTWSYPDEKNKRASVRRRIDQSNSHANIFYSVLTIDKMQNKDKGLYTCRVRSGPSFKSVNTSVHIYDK

Binder | binding result
B1 | no binding
B2 | binds
B3 | no binding
B4 | binds
B5 | no binding
B6 | no binding
B7 | binds
B8 | binds
B9 | binds
B10 | binds
B11 | binds
B12 | binds
B13 | binds
B14 | binds
B15 | binds
B16 | no binding
B17 | no binding
B18 | binds
B19 | binds
B20 | binds
B21 | binds
B22 | binds
B23 | binds

— patent US20050267024A1 (published 2005)
